Laboratory results as given in patent publication US8629107B2, “Genes and proteins associated with angiogenesis and uses thereof” (National Jewish Health, priority 2005, dated 2014).

Columns and labels:
[1] = test system: MB114 cells; experiment: cell proliferation, [3H]thymidine incorporation assay; assay type: cell-based, murine; conditions: serum-starved MB114 cells stably expressing the transgene vs GFP, 24 h, 37° C.
Experimental: The effect putative angiogenic agents had on MB114 cell activities were determined as follows: (i) cell proliferation using a [^3H]thymidine incorporation assay as described (Albig et al, 2006; Albig and Schiemann, 2004; Albig and Schiemann, 2005); (ii) cell invasion through Matrigel matrices using a modified Boyden-chamber assay as described (Albig et al, 2006; Albig and Schiemann, 2004; Albig and Schiemann, 2005); (iii) p38 MAPK phosphorylation using immunoblot analyses as described (Albig et al, 2006; Albig and Schiemann, 2004; Albig and Schiemann, 2005); (iv) angiogenic sprouting in rat tail collagen matrices as described (Albig et al, 2006; Albig and Schiemann, 2004); and (v) Hes1- and SBE-driven luciferase reporter gene assays as described (Albig et al, 2006; Albig and Schiemann, 2004; Albig and Schiemann, 2005).
FIG. 1A show results from an experiment in which serum-starved MB114 cells, stably expressing either GFP or various putative angiogenic agents, were stimulated in the absence or presence of either bFGF (50 ng/ml) or EGF (10 ng/ml) for 24 h at 37° C. Differences in MB114 cell DNA synthesis was determined by measuring [^3H]thymidine incorporation into cellular DNA. […] In this experiment, invasion of MB114 cells expressing either GFP or various putative angiogenic agents through synthetic basement membranes was determined over 48 h using a modified Boyden-chamber assay.

[2] = test system: MCA102 fibrosarcomas; experiment: MCA102 fibrosarcomas produced in mice; assay type: in vivo; conditions: unpublished observation
[3] = test system: vessel formation and infiltration into Matrigel plugs; experiment: Matrigel plug implantation assay; assay type: in vivo, C57BL/6 mice; conditions: 1 μg/ml with bFGF 50 ng/ml vs bFGF alone; subcutaneous, C57BL/6 mice, day 10
Experimental: The effect of MAGP-2 on vessel formation and infiltration into Matrigel plugs implanted into genetically normal mice was determined as described (Albig et al, 2006). Briefly, phenol red-free Matrigel (BD biosciences, Bedford, Mass.) was mixed with PBS (diluent), bFGF (50 or 300 ng/ml; R&D Systems, Minneapolis, Minn.), or recombinant MAGP-2 (1 μg/ml) together with bFGF (50 ng/ml), and the resulting mixtures were injected twice subcutaneously in the ventral groin area (400 μl/injection) of C57BL/6 mice. The mice were sacrificed 10 days post-implantation and the Matrigel plugs were dissected, fixed overnight in 10% formalin, and sectioned in the National Jewish Histology Laboratory. Afterward, Masson's trichrome staining was performed to visualize infiltrating vessels, which were quantified under a light microscope by determining the average number of vessels present in 5 random fields (200× magnification). Only those fields that contained at least one vessel in the area underlying the skin were tallied. Two mice were used per experimental condition and this experiment was performed three times in its entirety. All animal studies were performed according to protocol procedures approved by the Animal Care and Use Committee at National Jewish Medical and Research Center.
The inventors tested this hypothesis by utilizing the Matrigel plug implantation assay, which monitors the ability of various angiogenic agents to alter vessel formation and infiltration into Matrigel plugs implanted subcutaneously into normal mice. […] MAGP-2 purity was monitored by coomassie staining, and by immunoblotting with anti-FLAG M2 monoclonal antibodies (FIG. 2A; right panel). rMAGP-2 (1 μg/ml) stimulated angiogenic sprouting of quiescent MB114 cell monolayers (FIG. 2A; left panel). […] Afterward, the Matrigel plugs were fixed, sectioned, and stained with Masson's trichrome to visualize infiltrating blood vessels (FIG. 2B; right panels; arrows denote blood vessels), which were quantified by manual counting under a light microscope. […]

B1: MAGP-2: secreted glycoprotein (25 kDa); stably expressed in MB114 cells by bicistronic retroviral transduction, Myc-His tagged (protein)
chain: QRGDDVPETFTDDPNLVNDPSTDDTALADITPSTDDLAGDKNATAECRDEKFACTRLYSVHRPVRQCVHQSCFTSLRRMYIINNEICSRLVCKEHEAMKDELCRQMAGLPPRRLRRSNYFRLPPCENMNLQRPDGL
modifications: left off: small tags and cut ends
notes: secreted glycoprotein (25 kDa); stably expressed in MB114 cells by bicistronic retroviral transduction, Myc-His tagged
proliferative response of MB114 cells to EGF ([3H]thymidine incorporation into cellular DNA) ([1]; EGF 10 ng/ml): significantly enhanced | proliferative response of MB114 cells to bFGF ([3H]thymidine incorporation into cellular DNA) ([1]; bFGF 50 ng/ml): significantly enhanced | growth of MCA102 fibrosarcomas produced in mice [2]: significantly increase | vascularization of MCA102 fibrosarcomas produced in mice [2]: significantly increase

B2: rMAGP-2: recombinant FLAG-tagged MAGP-2 purified from bacterial cell extracts by anti-FLAG chromatography (protein, UniProt Q9QZJ6 29-164, looked up)
Microfibrillar-associated …: B1 chain
modifications: FLAG tag
notes: recombinant FLAG-tagged MAGP-2 purified from bacterial cell extracts by anti-FLAG chromatography
development and infiltration of vessels into Matrigel plugs [3]: significantly increased
